Results taken from PMC10397247.

Legend:
Assay in all cases: two-hybrid library CCNG1;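 further: natural log of median RNA to DNA barcode read ratio; higher means stronger binding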
4H1985-bH = target: T1, 4H1985-bH
T1 chain: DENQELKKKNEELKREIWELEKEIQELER

4H3129-bH = target: T2, 4H3129-bH
T2 chain: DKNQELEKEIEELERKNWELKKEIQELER

4H3162-bH = target: T3, 4H3162-bH
T3 chain: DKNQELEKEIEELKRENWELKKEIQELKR

4H3172-bH = target: T4, 4H3172-bH
T4 chain: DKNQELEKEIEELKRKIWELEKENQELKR

4H3175-bH = target: T5, 4H3175-bH
T5 chain: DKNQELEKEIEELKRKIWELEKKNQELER

4H3277-bH = target: T6, 4H3277-bH
T6 chain: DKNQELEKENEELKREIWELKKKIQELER

4H3298-bH = target: T7, 4H3298-bH
T7 chain: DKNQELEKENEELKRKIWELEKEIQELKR

4H3414-bH = target: T8, 4H3414-bH
T8 chain: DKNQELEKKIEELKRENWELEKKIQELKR

4H3462-bH = target: T9, 4H3462-bH
T9 chain: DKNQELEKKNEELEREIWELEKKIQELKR

4H3497-bH = target: T10, 4H3497-bH
T10 chain: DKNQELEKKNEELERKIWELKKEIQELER

4H3613-bH = target: T11, 4H3613-bH
T11 chain: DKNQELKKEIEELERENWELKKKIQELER

4H3628-bH = target: T12, 4H3628-bH
T12 chain: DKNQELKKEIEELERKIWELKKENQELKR

4H3631-bH = target: T13, 4H3631-bH
T13 chain: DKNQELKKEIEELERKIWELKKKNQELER

4H3638-bH = target: T14, 4H3638-bH
T14 chain: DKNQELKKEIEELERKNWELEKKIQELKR

4H3817-bH = target: T15, 4H3817-bH
T15 chain: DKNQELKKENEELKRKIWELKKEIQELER

4H3858-bH = target: T16, 4H3858-bH
T16 chain: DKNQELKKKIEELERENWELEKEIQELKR

4H3926-bH = target: T17, 4H3926-bH
T17 chain: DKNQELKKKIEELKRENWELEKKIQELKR

4H3974-bH = target: T18, 4H3974-bH
T18 chain: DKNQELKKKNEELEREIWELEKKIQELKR

4H570-bH = target: T19, 4H570-bH
T19 chain: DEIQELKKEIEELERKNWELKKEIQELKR

4H584-bH = target: T20, 4H584-bH
T20 chain: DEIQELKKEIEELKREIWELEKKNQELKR

4H591-bH = target: T21, 4H591-bH
T21 chain: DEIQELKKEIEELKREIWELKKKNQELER

4H619-bH = target: T22, 4H619-bH
T22 chain: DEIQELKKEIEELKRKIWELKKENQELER

4H626-bH = target: T23, 4H626-bH
T23 chain: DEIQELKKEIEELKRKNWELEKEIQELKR

4H72-bH = target: T24, 4H72-bH
T24 chain: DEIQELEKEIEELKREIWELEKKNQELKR

4H850-bH = target: T25, 4H850-bH
T25 chain: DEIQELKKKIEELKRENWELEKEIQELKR

4H906-bH = target: T26, 4H906-bH
T26 chain: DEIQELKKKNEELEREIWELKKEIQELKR

O15-bA = target: T27, O15-bA
T27 chain: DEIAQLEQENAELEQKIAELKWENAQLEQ

O16-bA = target: T28, O16-bA
T28 chain: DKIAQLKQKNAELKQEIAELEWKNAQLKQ

O2-bA = target: T29, O2-bA
T29 chain: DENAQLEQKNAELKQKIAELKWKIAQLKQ

O3-bA = target: T30, O3-bA
T30 chain: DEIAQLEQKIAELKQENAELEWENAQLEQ

O4-bA = target: T31, O4-bA
T31 chain: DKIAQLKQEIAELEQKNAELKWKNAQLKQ

O5-bA = target: T32, O5-bA
T32 chain: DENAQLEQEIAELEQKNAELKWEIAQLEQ

O6-bA = target: T33, O6-bA
T33 chain: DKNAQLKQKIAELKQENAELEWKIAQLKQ

O7-bA = target: T34, O7-bA
T34 chain: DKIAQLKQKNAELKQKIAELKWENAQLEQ

O8-bA = target: T35, O8-bA
T35 chain: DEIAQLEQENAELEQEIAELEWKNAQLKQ

O9-bA = target: T36, O9-bA
T36 chain: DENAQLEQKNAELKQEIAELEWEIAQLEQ

O2 = target: T37, O2
T37 chain: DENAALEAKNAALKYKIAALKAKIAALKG

O3 = target: T38, O3
T38 chain: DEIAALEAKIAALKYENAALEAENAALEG

O4 = target: T39, O4
T39 chain: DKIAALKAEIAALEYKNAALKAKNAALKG

O5 = target: T40, O5
T40 chain: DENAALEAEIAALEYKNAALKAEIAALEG

O6 = target: T41, O6
T41 chain: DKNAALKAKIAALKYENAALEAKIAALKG

O7 = target: T42, O7
T42 chain: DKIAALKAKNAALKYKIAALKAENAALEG

O8 = target: T43, O8
T43 chain: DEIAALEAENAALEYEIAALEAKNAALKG

O9 = target: T44, O9
T44 chain: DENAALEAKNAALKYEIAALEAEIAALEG

4H2702-bA = target: T45, 4H2702-bA
T45 chain: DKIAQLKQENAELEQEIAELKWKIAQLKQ

4H3010-bA = target: T46, 4H3010-bA
T46 chain: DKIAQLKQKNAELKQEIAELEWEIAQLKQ

4H3112-bA = target: T47, 4H3112-bA
T47 chain: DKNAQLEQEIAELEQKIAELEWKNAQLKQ

4H3427-bA = target: T48, 4H3427-bA
T48 chain: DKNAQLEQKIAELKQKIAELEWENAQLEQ

4H346-bA = target: T49, 4H346-bA
T49 chain: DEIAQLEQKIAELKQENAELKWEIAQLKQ

4H3926-bA = target: T50, 4H3926-bA
T50 chain: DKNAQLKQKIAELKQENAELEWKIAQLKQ

4H4073-bA = target: T51, 4H4073-bA
T51 chain: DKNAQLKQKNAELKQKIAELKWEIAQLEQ

4H457-bA = target: T52, 4H457-bA
T52 chain: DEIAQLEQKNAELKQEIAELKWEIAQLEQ

4H575-bA = target: T53, 4H575-bA
T53 chain: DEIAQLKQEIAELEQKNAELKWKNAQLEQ

4H683-bA = target: T54, 4H683-bA
T54 chain: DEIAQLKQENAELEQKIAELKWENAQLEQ

4H754-bA = target: T55, 4H754-bA
T55 chain: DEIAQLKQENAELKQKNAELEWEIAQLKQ

4H780-bA = target: T56, 4H780-bA
T56 chain: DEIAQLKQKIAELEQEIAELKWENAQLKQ

4H797-bA = target: T57, 4H797-bA
T57 chain: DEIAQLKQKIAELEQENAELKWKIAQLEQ

4H855-bA = target: T58, 4H855-bA
T58 chain: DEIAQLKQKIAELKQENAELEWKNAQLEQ

4H918-bA = target: T59, 4H918-bA
T59 chain: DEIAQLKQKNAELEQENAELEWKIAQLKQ

4H953-bA = target: T60, 4H953-bA
T60 chain: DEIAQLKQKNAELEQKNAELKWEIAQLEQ

4H968-bA = target: T61, 4H968-bA
T61 chain: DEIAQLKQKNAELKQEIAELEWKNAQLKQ

4H607-bH = target: T62, 4H607-bH
T62 chain: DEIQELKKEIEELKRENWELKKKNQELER

B1: 4H1985-bH (peptide)
chain: DENQELKKKNEELKREIWELEKEIQELER
Binder B1 has an interaction score (4H1985-bH) of -2.13, an interaction score (4H3129-bH) of -0.549 and an interaction score (4H3162-bH) of -1.36. It also gave an interaction score (4H3172-bH) of -1.84, an interaction score (4H3175-bH) of -0.853 and an interaction score (4H3277-bH) of -0.449. For the same binder, the interaction score (4H3298-bH) was -0.821, the interaction score (4H3414-bH) was -0.255 and the interaction score (4H3462-bH) was -0.482. The interaction score (4H3497-bH) was -0.884, the interaction score (4H3613-bH) was -1.08 and the interaction score (4H3628-bH) was -0.631. The interaction score (4H3631-bH) was 0.015, the interaction score (4H3638-bH) was -0.17 and the interaction score (4H3817-bH) was -0.0213. The interaction score (4H3858-bH) was -1.02, the interaction score (4H3926-bH) was -0.572 and the interaction score (4H3974-bH) was 0.0704. It also gave an interaction score (4H570-bH) of -0.979, an interaction score (4H584-bH) of -1.1 and an interaction score (4H591-bH) of -1.01. The interaction score (4H619-bH) was -1.32, the interaction score (4H626-bH) was -2.1 and the interaction score (4H72-bH) was -0.781. The interaction score (4H850-bH) was -0.707 and the interaction score (4H906-bH) was -0.874.

B2: O13-bA (peptide)
chain: DKNAQLKQKIAELKQKNAELKWEIAQLEQ
With B2 the interaction score (O15-bA) was 0.435, the interaction score (O16-bA) was -1.53 and the interaction score (O2-bA) was -1.17. It also gave an interaction score (O3-bA) of -1.05, an interaction score (O4-bA) of -1.31 and an interaction score (O5-bA) of 0.182. It also gave an interaction score (O6-bA) of 1.39, an interaction score (O7-bA) of -1.07 and an interaction score (O8-bA) of 0.83. It also gave an interaction score (O9-bA) of -0.882.

B3: O2 (peptide)
chain: DENAALEAKNAALKYKIAALKAKIAALKG
For B3, the interaction score (O2) was -2.16, the interaction score (O3) was -1.84 and the interaction score (O4) was -1.83. The interaction score (O5) was -1.97, the interaction score (O6) was -2.66 and the interaction score (O7) was -2.4. For the same binder, the interaction score (O8) was -0.949 and the interaction score (O9) was 0.313.

B4: O15-bA (peptide)
chain: DEIAQLEQENAELEQKIAELKWENAQLEQ
B4 was tested, and the interaction score (O15-bA) was -1.57, the interaction score (O16-bA) was 2.52 and the interaction score (O2-bA) was -0.458. The interaction score (O3-bA) was -1.21, the interaction score (O4-bA) was -0.5 and the interaction score (O5-bA) was -0.66. It also gave an interaction score (O6-bA) of -0.551, an interaction score (O7-bA) of 1.63 and an interaction score (O8-bA) of -0.714. For the same binder, the interaction score (O9-bA) was -0.0414.

B5: O14-bA (peptide)
chain: DENAQLEQEIAELEQENAELEWKIAQLKQ
B5 showed an interaction score (O15-bA) of -0.126, an interaction score (O16-bA) of 2.36 and an interaction score (O2-bA) of 0.492. The interaction score (O3-bA) was -0.879, the interaction score (O4-bA) was -0.146 and the interaction score (O5-bA) was 1.69. The interaction score (O6-bA) was 2.5, the interaction score (O7-bA) was 2.14 and the interaction score (O8-bA) was -0.111. It also gave an interaction score (O9-bA) of -0.575.

B6: 4H2702-bA (peptide)
chain: DKIAQLKQENAELEQEIAELKWKIAQLKQ
With B6 the interaction score (4H2702-bA) was 1.87, the interaction score (4H3010-bA) was 2.07 and the interaction score (4H3112-bA) was 0.438. For the same binder, the interaction score (4H3427-bA) was 0.956, the interaction score (4H346-bA) was 0.224 and the interaction score (4H3926-bA) was 1.22. For the same binder, the interaction score (4H4073-bA) was 2.39, the interaction score (4H457-bA) was 1.03 and the interaction score (4H575-bA) was -1.27. It also gave an interaction score (4H683-bA) of -1.86, an interaction score (4H754-bA) of -1.37 and an interaction score (4H780-bA) of -1.04. For the same binder, the interaction score (4H797-bA) was -1.02, the interaction score (4H855-bA) was -1.38 and the interaction score (4H918-bA) was -0.134. For the same binder, the interaction score (4H953-bA) was 1.82, the interaction score (4H968-bA) was 2.68 and the interaction score (O15-bA) was 0.113. The interaction score (O4-bA) was -0.822.

B7: 4H3162-bH (peptide)
chain: DKNQELEKEIEELKRENWELKKEIQELKR
B7 gave an interaction score (4H3162-bH) of 0.549, an interaction score (4H3175-bH) of -1.88 and an interaction score (4H3277-bH) of -0.247. For the same binder, the interaction score (4H3298-bH) was -0.633, the interaction score (4H3462-bH) was -0.66 and the interaction score (4H3497-bH) was -0.619. For the same binder, the interaction score (4H3613-bH) was 0.334, the interaction score (4H3628-bH) was -1.68 and the interaction score (4H3926-bH) was 1.52. The interaction score (4H591-bH) was -0.636, the interaction score (4H607-bH) was -2.63 and the interaction score (4H626-bH) was -1.98. It also gave an interaction score (4H906-bH) of -0.0502.
